Results reported in paper PMC5207774, “Atomic structures of fibrillar segments of hIAPP suggest tightly mated β-sheets are important for cytotoxicity” (eLife, 2017).

B1: hIAPP segment 19–29 S20G (19-SGNNFGAILSS-29) (peptide)
peptide: SGNNFGAILSS
notes: human islet amyloid polypeptide (hIAPP), residues 19-29, with the early onset familial mutation S20G; numbers count on: the mature protein (37-residue hormone); Forms 3D nanocrystals and fibrils; the number of chains in the assembly is open-ended; also called spine segment 19–29 S20G; source: synthetic peptide: GenScript, greater than 98% purity
B2: hIAPP segment 15–25 WT (15-FLVHSSNNFGA-25) (peptide)
peptide: FLVHSSNNFGA
notes: human islet amyloid polypeptide (hIAPP), residues 15-25, wild type; numbers count on: the mature protein (37-residue hormone); Forms 3D nanocrystals and fibrils (striated ribbons); also called spine segment 15–25 WT; source: synthetic peptide: GenScript, greater than 98% purity

Biological target: the molecule itself
Experiment: crystal structure; MicroED (electron diffraction in a cryo electron microscope, 200 kV) from 3D peptide crystals only a few hundred nanometers thick; self-association of the peptide in the crystal

Protein	binding result
B1	binds
B2	binds
